B1: library; numbered along this chain (parent)
chain: MRKPRAAVGSGHRKQAASQEGRQKHAKNNSQAKPSACDGLARQPEEVVLQASVSSYHLFRDVAEVTAFRGSLLSWYDQEKRDLPWRRRAEDEMDLDRRAYAVWVSEVMLQQTQVATVINYYTGWMQKWPTLQDLASASLEEVNQLWAGLGYYSRGRRLQEGARKVVEELGGHMPRTAETLQQLLPGVGRYTAGAIASIAFGQATGVVDGNVARVLCRVRAIGADPSSTLVSQQLWGLAQQLVDPARPGDFNQAAMELGATVCTPQRPLCSQCPVESLCRARQRVEQEQLLASGSLSGSPDVEECAPNTGQCHLCLPPSEPWDQTLGVVNFPRKASRKPPREESSATCVLEQPGALGAQILLVQRPNSGLLAGLWEFPSVTWEPSEQLQRKALLQELQRWAGPLPATHLRHLGEVVHTFSHIKLTYQVYGLALEGQTPVTTVPPGARWLTQEEFHTAAVSTAMKKVFRVYQGQQPGTCMGSKRSQVSSPCSRKKPRMGQQVLDNFFRSHISTDAHSLNSAAQ

Variants of: B1
Assay: 8OG:A repair function score (normalized; synonymous = 0, nonsense = -1) (normalized log-likelihood score); higher = more repair activity (WT-like)
Conditions: with 8OG:A DNA repair reporter (GFP) in HEK-293 MUTYH KO cells
Method in brief: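 MUTYH knockout HEK-293 cells carrying lentiviral MUTYH cDNA NNN codon-scan libraries were grown with 10 pg/ml doxycycline and co-transfected with mCherry and a GFP reporter of 8OG:A repair. Viable mCherry+ cells were sorted at 72 h into GFP+ (repair) and GFP− bins, with three replicates per tile, and tile amplicons were sequenced. Rosace fitness scores for each tile were turned into a normalized repair function score anchored on the synonymous and nonsense distributions. Synonymous medians were set to 0 and nonsense medians to -1, and variants below 300 counts per million at the start were dropped.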

8OG:A repair function score, by site and new letter:
Y469: Q -0.317; A -0.0759; P -0.718; C -0.193
F466: I -0.587; S -0.715; Y 0.00857; K -0.729; W -0.0618; N -0.0913; P -1.3; R -0.568; L -0.0617; A -0.4; Q -0.488; G -0.584; C -0.319; E -0.52; H -0.355; V -0.443; M -0.0599; D -0.872; T -0.725
V468: E -0.259; D -0.647; Q -0.0492; S -0.18; L -0.00361; M -0.0306; A -0.0846; T -0.0398; F -0.0236; P -0.969; R -0.101; W -0.204; Y -0.025; C -0.0116; K -0.0375; G -0.557; I -0.0279; N -0.262; H -0.0347
K464: V -0.276; I -0.441; Q -0.245; C -0.49; M -0.266; P -0.968; N -0.146; E -0.152; D -0.393; F -0.702; G -0.315; W -0.474; R -0.123; Y -0.503; S -0.198; H -0.313; T -0.351; A -0.184; L -0.298
Q472: H -0.152; G -0.000609; I 0.0116; Y 0.00647; A 0.0214; R 0.0222; K -0.009; V 0.00907; F 0.018; E -0.00354; D 0.0112; P 0.0113; L 0.022; W 0.027; T -0.00129; S 0.0274; M -0.0129; N 0.0284; C -0.0129
G475: D -0.00652; Q -0.00214; W -0.0871; Y -0.00721; E -0.00575; K 0.0247; F -0.00573; P -0.00826; R 0.00413; A 0.000317; V -0.0131; S -0.016; M -0.126; N 0.0259; H -0.0609; T -0.0403; I -0.00703; L 0.0136; C 0.00154
M462: S -0.0759; I -0.13; F -0.254; Q -0.198; D -0.463; N -0.31; R -1.12; E -0.603; V -0.097; W -0.592; L -0.449; K -1.21; P -0.578; H -0.138; T 0.0162; C -0.0756; G -0.215; Y -0.369; A -0.0163
G479: A 0.00119; D 0.0194; C -0.0498
A461: V -0.124; R -0.632; Y -0.726; Q -0.495; S -0.119; T -0.23; P -0.267; W -1.22
P474: L 0.0136; R 0.00458; D 0.00257; T 0.0285; A -0.0123; G -0.00334; M 0.0118; Y -0.0117; C -0.00224; H 0.0269; Q 0.0183; I -0.014; K -0.0164; W -0.0167; E 0.0263; F 0.0108; N -0.0807; S -0.00281; V 0.00398
Q470: W -0.0772; I 0.00254; P -0.426; K 0.0155; M -0.0791; C -0.00083; R -0.00198; T -0.0526; N 0.0117; H -0.029; L 0.00494; S -0.00501; F -0.0175; Y -0.0671; G -0.105; D -0.0832; E -0.000322; V -0.00474; A -0.0419
